Measured values: the supplement of paper PMC10567573

B1: PDS5B (parent)
chain: IYKKYALQSAAGKDAAKQIAWIKD

Variants of: B1
Test: protein stability index of a GFP-peptide fusion (GPS, HEK-293T) (PSI 1-6); higher = more stable
Conditions: c terminus: a fixed tail appended
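Note: lentivirally expressed fusions sorted by FACS into six bins by GFP to DsRed ratio, PSI derived from sequencing read proportions per bin multiplied by bin number.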

Variant | protein stability index
IYKQYALQSAAGKDAAKQIAWIKD [K4Q] | 2.6
IYKWYALQSAAGKDAAKQIAWIKD [K4W] | 1.35
IYKDYALQSAAGKDAAKQIAWIKD [K4D] | 3.24
IYKRYALQSAAGKDAAKQIAWIKD [K4R] | 2.25
IYKEYALQSAAGKDAAKQIAWIKD [K4E] | 2.68
IYKIYALQSAAGKDAAKQIAWIKD [K4I] | 2.44
IYKCYALQSAAGKDAAKQIAWIKD [K4C] | 1.61
IYKYYALQSAAGKDAAKQIAWIKD [K4Y] | 1.84
IYKPYALQSAAGKDAAKQIAWIKD [K4P] | 2.71
IYKVYALQSAAGKDAAKQIAWIKD [K4V] | 1.55
IYKFYALQSAAGKDAAKQIAWIKD [K4F] | 2.32
IYKTYALQSAAGKDAAKQIAWIKD [K4T] | 2.7
IYKAYALQSAAGKDAAKQIAWIKD [K4A] | 2.13
IYKHYALQSAAGKDAAKQIAWIKD [K4H] | 2.39
IYKMYALQSAAGKDAAKQIAWIKD [K4M] | 1.95
IYKSYALQSAAGKDAAKQIAWIKD [K4S] | 2.23
IYKLYALQSAAGKDAAKQIAWIKD [K4L] | 1.75
IYKGYALQSAAGKDAAKQIAWIKD [K4G] | 2.61
IYKNYALQSAAGKDAAKQIAWIKD [K4N] | 2.68
IYKKYALCSAAGKDAAKQIAWIKD [Q8C] | 1.29
IYKKYALLSAAGKDAAKQIAWIKD [Q8L] | 1.85
IYKKYALISAAGKDAAKQIAWIKD [Q8I] | 2.7
IYKKYALTSAAGKDAAKQIAWIKD [Q8T] | 1.84
IYKKYALRSAAGKDAAKQIAWIKD [Q8R] | 2.21

Variant | protein stability index
IYKKYALHSAAGKDAAKQIAWIKD [Q8H] | 1.83
IYKKYALMSAAGKDAAKQIAWIKD [Q8M] | 2.06
IYKKYALVSAAGKDAAKQIAWIKD [Q8V] | 2.17
IYKKYALNSAAGKDAAKQIAWIKD [Q8N] | 2.06
IYKKYALKSAAGKDAAKQIAWIKD [Q8K] | 2.35
IYKKYALDSAAGKDAAKQIAWIKD [Q8D] | 2.27
IYKKYALPSAAGKDAAKQIAWIKD [Q8P] | 2.72
IYKKYALSSAAGKDAAKQIAWIKD [Q8S] | 2.25
IYKKYALESAAGKDAAKQIAWIKD [Q8E] | 2.67
IYKKYALWSAAGKDAAKQIAWIKD [Q8W] | 1.92
IYKKYALASAAGKDAAKQIAWIKD [Q8A] | 2.4
IYKKYALYSAAGKDAAKQIAWIKD [Q8Y] | 1.69
IYKKYALGSAAGKDAAKQIAWIKD [Q8G] | 2.01
IYKKYALFSAAGKDAAKQIAWIKD [Q8F] | 3.35
IYKKYALQMAAGKDAAKQIAWIKD [S9M] | 2.44
IYKKYALQHAAGKDAAKQIAWIKD [S9H] | 2.38
IYKKYALQRAAGKDAAKQIAWIKD [S9R] | 2.29
IYKKYALQLAAGKDAAKQIAWIKD [S9L] | 1.76
IYKKYALQFAAGKDAAKQIAWIKD [S9F] | 2
IYKKYALQIAAGKDAAKQIAWIKD [S9I] | 1.93
IYKKYALQDAAGKDAAKQIAWIKD [S9D] | 3.27
IYKKYALQPAAGKDAAKQIAWIKD [S9P] | 2.17
IYKKYALQKAAGKDAAKQIAWIKD [S9K] | 1.87
IYKKYALQAAAGKDAAKQIAWIKD [S9A] | 2.16

Variant | protein stability index
IYKKYALQQAAGKDAAKQIAWIKD [S9Q] | 2.79
IYKKYALQEAAGKDAAKQIAWIKD [S9E] | 2.73
IYKKYALQGAAGKDAAKQIAWIKD [S9G] | 2.17
IYKKYALQCAAGKDAAKQIAWIKD [S9C] | 2
IYKKYALQYAAGKDAAKQIAWIKD [S9Y] | 1.75
IYKKYALQWAAGKDAAKQIAWIKD [S9W] | 1.99
IYKKYALQVAAGKDAAKQIAWIKD [S9V] | 2.13
IYKKYALQNAAGKDAAKQIAWIKD [S9N] | 2.2
IYKKYALQTAAGKDAAKQIAWIKD [S9T] | 2.06
LYKKYALQSAAGKDAAKQIAWIKD [I1L] | 2.12
YYKKYALQSAAGKDAAKQIAWIKD [I1Y] | 2.1
FYKKYALQSAAGKDAAKQIAWIKD [I1F] | 1.68
VYKKYALQSAAGKDAAKQIAWIKD [I1V] | 2.61
TYKKYALQSAAGKDAAKQIAWIKD [I1T] | 3.11
WYKKYALQSAAGKDAAKQIAWIKD [I1W] | 2.14
PYKKYALQSAAGKDAAKQIAWIKD [I1P] | 2.77
HYKKYALQSAAGKDAAKQIAWIKD [I1H] | 3.36
QYKKYALQSAAGKDAAKQIAWIKD [I1Q] | 3.23
NYKKYALQSAAGKDAAKQIAWIKD [I1N] | 2.41
GYKKYALQSAAGKDAAKQIAWIKD [I1G] | 2.81
CYKKYALQSAAGKDAAKQIAWIKD [I1C] | 3.19
DYKKYALQSAAGKDAAKQIAWIKD [I1D] | 3.71
SYKKYALQSAAGKDAAKQIAWIKD [I1S] | 2.63
AYKKYALQSAAGKDAAKQIAWIKD [I1A] | 2.62

Variant | protein stability index
KYKKYALQSAAGKDAAKQIAWIKD [I1K] | 2.75
RYKKYALQSAAGKDAAKQIAWIKD [I1R] | 2.5
EYKKYALQSAAGKDAAKQIAWIKD [I1E] | 3.79
MYKKYALQSAAGKDAAKQIAWIKD [I1M] | 2.08
IYNKYALQSAAGKDAAKQIAWIKD [K3N] | 2.27
IYYKYALQSAAGKDAAKQIAWIKD [K3Y] | 2.19
IYRKYALQSAAGKDAAKQIAWIKD [K3R] | 2.56
IYPKYALQSAAGKDAAKQIAWIKD [K3P] | 2.65
IYVKYALQSAAGKDAAKQIAWIKD [K3V] | 1.75
IYCKYALQSAAGKDAAKQIAWIKD [K3C] | 1.51
IYTKYALQSAAGKDAAKQIAWIKD [K3T] | 2.15
IYAKYALQSAAGKDAAKQIAWIKD [K3A] | 2.26
IYWKYALQSAAGKDAAKQIAWIKD [K3W] | 2.95
IYMKYALQSAAGKDAAKQIAWIKD [K3M] | 1.72
IYSKYALQSAAGKDAAKQIAWIKD [K3S] | 2.48
IYGKYALQSAAGKDAAKQIAWIKD [K3G] | 2.24
IYIKYALQSAAGKDAAKQIAWIKD [K3I] | 2.93
IYDKYALQSAAGKDAAKQIAWIKD [K3D] | 3.43
IYEKYALQSAAGKDAAKQIAWIKD [K3E] | 2.88
IYQKYALQSAAGKDAAKQIAWIKD [K3Q] | 2.33
IYLKYALQSAAGKDAAKQIAWIKD [K3L] | 2.4
IYFKYALQSAAGKDAAKQIAWIKD [K3F] | 2.15
